Measurements taken from paper PMC3077074.

Target: Helicobacter hepaticus Group III 2/2 hemoglobin (Hh Hb), wild type (Helicobacter hepaticus ATCC51449)
Assay: NMR 15N relaxation

**Q.** For “Helicobacter hepaticus Group III 2/2 hemoglobin (Hh Hb), wild type (natural protein)”, which stoichiometry N is on record?
**A.** > 2
